B1: Negative K: negative control α1-antichymotrypsin (Athens Research & Technology), structurally similar to A1PI, lacks activity against the PR3 receptor (protein)
chain: HPNSPLDEENLTQENQDRGTHVDLGLASANVDFAFSLYKQLVLKAPDKNVIFSPLSISTALAFLSLGAHNTTLTEILKGLKFNLTETSEAEIHQSFQHLLRTLNQSSDELQLSMGNAMFVKEQLSLLDRFTEDAKRLYGSEAFATDFQDSAAAKKLINDYVKNGTRGKITDLIKDLDSQTMMVLVNYIFFKAKWEMPFDPQDTHQSRFYLSKKKWVMVPMMSLHHLTIPYFRDEELSCTVVELKYTGNASALFILPDQDKMEEVEAMLLPETLKRWRDSLEFREIGELYLPKFSISRDYNLNDILLQLGIEEAFTSKADLSGITGARNLAVSQVVHKAVLDVFEEGTEASAATAVKITLLSALVETRTIVRFNRPFLMIIVPTDTQNIFFMSKVTNPKQA

Key:
proteinase-3 [1] = target: T1, proteinase-3 (Homo sapiens, UniProt P24158); settings: cited from earlier work
T1 sequence (P24158 28-248): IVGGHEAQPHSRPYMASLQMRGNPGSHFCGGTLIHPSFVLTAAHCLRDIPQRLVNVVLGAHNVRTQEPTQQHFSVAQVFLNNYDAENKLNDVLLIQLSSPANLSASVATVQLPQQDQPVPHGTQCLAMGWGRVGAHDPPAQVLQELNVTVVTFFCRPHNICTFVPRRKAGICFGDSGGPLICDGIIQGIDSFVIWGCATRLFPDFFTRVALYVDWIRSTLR

proteinase-3 [2] = target: T1, proteinase-3; settings: Nobar et al, FEBS 272 (2005); cited from earlier work
[3] = test system: HUVEC (human umbilical vein endothelial cells); assay: HUVEC cytotoxicity assay: calcein release after attack by TNF-primed, α-PR3 mAb-activated neutrophils; format: cell-based; settings: for % Release / Mean (fluorescence): 0.25 mg/mL, α-PR3 mAbs +, 4 hours at 37° C.; for response in fluorescence release: all doses tested
Description: A cell culture provides a model of the blood vessels by using HUVEC (human umbilical vein endothelial cells) cultured to 80-90% confluence as a representation of the blood vessel wall. The following is a model of GPA in cell culture using HUVEC and human blood neutrophils that are primed and activated by c-ANCA in the same manner as the disease. HUVEC are sensitized to inflammatory damage by pre-exposure to BCNU and ionomycin. In the disease state of Granulomatosis with Polyangiitis (GPAANegener's), activated neutrophils attack the blood vessel walls. This study evaluated two compounds, A1PI (α-1-antitrypsin; Sigma Aldrich Cat. No. A9024, lot SLBL9794V, 90% purity) and elafin (AnaSpec Cat. No. AS-61641, lot 1360190, 95% purity), and their ability to mitigate the induced damage to HUVEC as a model of the vascular endothelium compared to the negative control al-antichymotrypsin (Athens Research & Technology, Cat. No. 16-16-012400, lot AX2014-02, >95% purity). al-Antichymotrypsin was chosen as a negative control due to its structural similarity to A1PI and lack of activity against the PR3 receptor. α-1-Antichymotrypsin inhibits neutrophil cathepsin G and mast cell chymase.
Confluent HUVEC was labeled with calcein-AM as a fluorescent marker. Calcein-AM is a cell-permeant dye that can be used to determine cell viability in HUVEC (and most eukaryotic cells). In live cells the non-fluorescent calcein AM is converted to a green-fluorescent calcein upon uptake after acetoxymethyl ester hydrolysis by intracellular esterases. Calcein-AM dye requires very small quantities of cells while maintaining the same sensitivity as the traditional ^51Cr assay. Once taken up by the cell, free calcein is generally membrane impermeable and only permeates through gap junctions. Although there is some leakage over the incubation period, this is accounted for through the use of a control of HUVEC alone, labelled with Calcein-AM and used to determine the baseline fluorescence level accounting for normal cellular processes.
Peripheral blood neutrophils were primed to enhance expression of the PR-3 receptor (proteinase 3) with 50 U/mL TNF. A high proportion of membrane PR3 positive neutrophils is a risk factor for the development of vasculitis, and elevated membrane PR3 levels are associated with a higher relapse rate in patients with Wegener granulomatosis. Activated neutrophils were then added (5×10^5 neutrophils/well) to plated calcein labeled HUVEC to produce an inflammatory response. Four dose concentrations of A1PI (0.25, 0.5, 1.0 and 2.0 mg/mL) and one dose of elafin (0.25 mg/mL) were evaluated for prevention of the activation of neutrophils and lysis of the cells. One dose concentration of the negative control al antichymotrypsin (0.25 mg/mL) was evaluated.
Three a-PR-3 MoAbs [monoclonal antibodies (15 μg/mL of α-PR3 WGM2 and 5 μg/ml each of a-PR3 4A5 and α-PR 6A6, for a total of 25 μg/mL)] were added to activate the neutrophils to attack the HUVEC, causing lysis of the HUVEC. α-PR3 4A5 and α-PR3 6A6 clones were obtained from Eurodiagnostica and the α-PR3 WGM2 from Abcam. These 3 clones were selected to provide a model of the polyclonal response that would be seen in vivo and represent three binding sites on the PR-3 receptor (Van Der Geld, Characterization of monoclonal antibodies to PR3 as candidate tools for epitope mapping or human anti-PR3 autoantibodies, 1999). After addition of the activated neutrophils, test compounds and α-PR3 mAbs, cells were incubated for 4 hours at 37° C. Following incubation the supernatant was evaluated for fluorescence. When neutrophils attack the HUVEC and cell lysis occurs, the fluorescent calcein label is released from damaged membranes and measured in the supernatants.
A1PI provided a response that was dose dependent and directional in nature. The mean fluorescence was determined from […] aliquots of supernatant from each well, with 6 wells for each condition (18 replicates total). […]

Molecule | K of Proteinase-3/Trappin-2 associations (proteinase-3 [1]) [nm] | Ki values (proteinase-3 [2]) | % Release [3] [%] | Mean (fluorescence) [3] | response in fluorescence release [3] | equilibrium dissociation constant (Ki) for proteinase-3/elafin association (proteinase-3 [1]) [nM]
Trappin-2: precursor of elafin, 117 amino acids, SEQ ID NO: 9 | 12 | sub-nanomolar range |  |  |  | 
Elafin: mature product of Trappin-2, C-terminal 57 amino acids (61-117 of SEQ ID NO: 9); AnaSpec Cat. No. AS-61641 (AQEPVKGPVSTKPGSCPIILIRCAMLNPPNRCLKDTDCPGIKKCCEGSCGMACFVPQ; listed as Homo sapiens) |  | sub-nanomolar range | 6.2 | 5455.7 | showed a functional response | 20
B1 |  |  | 21.9 | 4417.7 | failing to provide a meaningful change | 

Source: US12702701B2, “Compositions and methods for treating granulomatosis with polyangiitis” (Canem Holdings, LLC, priority 2015, dated 2026)
